# In publication PMC6912275, “Identification of Novel Adenylyl Cyclase 5 (AC5) Signaling Networks in D1 and D2 Medium Spiny Neurons using Bimolecular Fluorescence Complementation Screening” (Cells, 2019):
# T1: Endogenous NAPA (human (endogenous in HEK 293), UniProt P54920 1-295)
# T1 construct: NSF attachment protein alpha, endogenous in HEK 293 cells; also called NSF attachment protein alpha; source: endogenous, HEK AC5/D2L cell lysate
# T1 sequence (looked up): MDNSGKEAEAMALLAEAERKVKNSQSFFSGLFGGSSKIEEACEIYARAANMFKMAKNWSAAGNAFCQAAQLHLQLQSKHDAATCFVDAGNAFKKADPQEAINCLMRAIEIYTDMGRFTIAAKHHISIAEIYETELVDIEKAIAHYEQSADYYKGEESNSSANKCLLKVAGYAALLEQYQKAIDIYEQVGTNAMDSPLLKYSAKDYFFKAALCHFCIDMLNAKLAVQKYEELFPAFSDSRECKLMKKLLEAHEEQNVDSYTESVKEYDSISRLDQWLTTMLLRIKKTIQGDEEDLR
# B1: human AC type 5 (in HEK-AC5/D2L cells) (enzyme)
# chain: not shown
# notes: adenylyl cyclase type 5 (AC5), human; Found in the immunoprecipitates by its adenylyl cyclase activity, not by a blot; also called adenylyl cyclase type 5; source: HEK 293 cells stably expressing human D2L and human AC5 (HEK-AC5/D2L), in lysate
# Assays:
# Endogenous NAPA = target: T1, Endogenous NAPA; test: co-IP; endogenous PPP2CB or NAPA immunoprecipitated with its antibody and protein A agarose from HEK AC5/D2L cell lysate (0.5% C12E10, 150 mM NaCl, pH 7.5); AC activity measured in the immunoprecipitate with activated Gαs and FSK; cells under vehicle conditions (PPP2CB) or treated overnight with quinpirole (NAPA); conditions: partners not purified
# Endogenous PPP2CB = target: T2, Endogenous PPP2CB (human (endogenous in HEK 293), UniProt P62714 1-309); test: as above; conditions: partners not purified
# T2 construct: protein phosphatase 2A catalytic subunit beta, endogenous in HEK 293 cells; also called protein phosphatase 2A (PP2A) catalytic subunit; source: endogenous, HEK AC5/D2L cell lysate
# T2 sequence (P62714 whole entry): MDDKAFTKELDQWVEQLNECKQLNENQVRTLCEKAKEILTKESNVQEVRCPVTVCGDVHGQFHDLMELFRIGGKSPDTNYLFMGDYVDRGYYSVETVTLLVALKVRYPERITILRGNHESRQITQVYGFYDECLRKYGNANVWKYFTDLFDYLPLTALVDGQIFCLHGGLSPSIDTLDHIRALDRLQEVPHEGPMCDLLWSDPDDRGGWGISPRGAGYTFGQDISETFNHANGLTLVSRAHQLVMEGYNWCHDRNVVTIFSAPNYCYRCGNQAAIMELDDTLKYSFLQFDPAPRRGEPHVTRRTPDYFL
binder,measurement,setting,value
B1,fold AC activity in the immunoprecipitate against the vehicle-treated group,Endogenous NAPA,4.5 fold
same,fold AC activity in the immunoprecipitate against the control,Endogenous PPP2CB,4 fold
